Test results published in PMC9779223, “Impact of Troponin in Cardiomyopathy Development Caused by Mutations in Tropomyosin” (International Journal of Molecular Sciences, 2022).

Target: T1, Tropomyosin C-terminal fragment Tpm WT 134–284 (human, UniProt P09493 134-284)
T1 construct: also called Tpm C-end; source: E. coli C41 (DE3), purified (anion exchange, HiTrap Q HP)
Assay: ITC; MicroCal PEAQ-ITC, 25 °C; 30 mM HEPES-Na pH 7.3, 100 mM NaCl, 1 mM DTT; sample in the cell 30 to 60 µM, ligand in the syringe 200 to 700 µM; one set of binding sites
Conditions: both partners purified

T1 sequence (P09493 134-284): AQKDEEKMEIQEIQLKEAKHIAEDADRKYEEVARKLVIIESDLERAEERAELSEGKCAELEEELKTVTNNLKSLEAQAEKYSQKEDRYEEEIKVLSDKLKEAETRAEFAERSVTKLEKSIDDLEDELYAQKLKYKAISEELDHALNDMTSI

Kd: 10.2 ± 0.3 µM | dH: 1.95 ± 0.15 kcal/mol | stoichiometry N: 1.17 ± 0.05
B1: Tropomyosin N-terminal fragment Tpm WT 1–133 (domain or fragment)
chain: not shown
notes: human tropomyosin Tpm1.1 (alpha-Tpm), residues 1-133 (ends at the trypsin site Arg133); Made from the full Tpm1.1 construct by primers that put a stop after Arg133; also called Tpm_(1–133); Tpm N-end; source: E. coli C41 (DE3), purified (anion exchange, HiTrap Q HP)
